This is an account of results in patent US20240336907A1, “NOVEL ENDO-ß-N-ACETYLGLUCOSAMINIDASE” (priority 2020, published 2024).

Assay [1] concerns (Fucα1,6)GlcNAc-mAb2. Nature of the assay: Transglycosylation activity with sugar chain oxazoline [N3-PEG(3)]-MSG1(9)-Ox as donor. Format: biochemical. Conditions: donor [N3-PEG(3)]-MSG1(9)-Ox (8 eq.), enzyme 1.25 μg, 28° C., pH 7.5. The protocol: Transglycosylation activity was evaluated as follows. […] A sample was taken from each of the reaction solutions at 1, 2, 4, 6, and 24 hours after initiation of the reaction and analyzed for protein by a fully automated electrophoresis system as mentioned above. In the chromatogram obtained, an unreacted product and transglycosylated molecule, mAb2-(MSG1-N3)2 were confirmed as discrete peaks. The transglycosylation rate was calculated based on the peak-area ratio between the unreacted product and the transglycosylated molecule in accordance with the following expression.
Transglycosylation rate (%)=[[peak area of mAb2-(MSG1-N3)2-derived H chain]/{[peak area of (Fucα1,6)GlcNAc-mAb2-derived H chain]+[peak area of mAb2-(MSG1-N3)2-derived H chain]}]×100
Similarly, the transglycosylation rates of individual Endo-Si mutant enzymes at each time period for a reaction were calculated (Table 5).

The subject of assay [2] is (Fucα1,6)GlcNAc-mAb2. The assay is described as follows: Transglycosylation activity with SGP as donor, in combination with Endo-M N175Q. Conditions: donor SGP (50 eq.), Endo-M N175Q 2.5 mU, Endo-Si enzyme 10 μg, 23° C., pH 7.5. Format: biochemical. The procedure:
Transglycosylation activity was evaluated as follows. A 50 mM (sodium) phosphate buffer (pH 7.5) solution (17 μL) containing (Fucα1,6)GlcNAc-mAb2 (0.5 mg), SGP (0.485 mg (50 eq.)), Endo-M N175Q (manufactured by Tokyo Kasei Kogyo Co., Ltd.) (2.5 mU) and each of various Endo-Si mutant enzymes (10 μg), was prepared and incubated at 23° C. A sample was taken from each of the reaction solutions at 2, 4, 6, 24, and 48 hours after initiation of the reaction and analyzed for protein by a fully automated electrophoresis system as mentioned above. In the chromatogram obtained, an unreacted product and a transglycosylated molecule, mAb2-(SG)2 are confirmed as discrete peaks. The transglycosylation rates were obtained based on the peak area ratio between the unreacted product and the transglycosylated molecule in accordance with the following expression.
Similarly, transglycosylation rates of individual Endo-Si mutant enzymes at each time period of a reaction were calculated (Table 6).

B1: Endo-Si D241M (protein)
chain: MNKRLLVKRTFGCVCAAAILGVAPLSHPTIVEAREELKMPNGLEQSIADVEAKIDALTYLSKNSKDEFKHSMYEIPSNREHKPVSPKQALQNAKKADAQAERLAKMTIPKKEELKALEGPLYGGYFRTWQDKTSDPTETNKVNSFGELPKEVDLAFVFHDYTKDYSLFWEELATKQVPKLNKQGTRVIRTIPWRFLSGADHSDISADKEKFPNTEAGNKALAKAIVDEYVYKYNLDGLDIMIERDSVPKVNDKEDPEALARTVEVFKEIGKLIGANGADKSRLLIMDTTYTAEENPLIKETAQYLNLLLVQVYGFSGENGNYLHHKNILDETSSMEGRWQGYSKYIRPEQYMVGFSFYEEKDFNNRWKDINEEDPSDPHIGEKIQGTRAERYAKWQPKTGGLKGGLFSYAIDRDGVAQPKQKTEHPELDKIVKSEYKVSKALKKLMMTDDQYQPIDQSDFPDKALRESIIKQVGTRRGDLERFKGTLRLDNPEIKDLTGLNKLKRVAKLELINLPKITKIDKDDLPQNLKPLTDNQKSNLEIKGTYDDSKLYKDIPAFDLVISGLSGLESLDISGHQRDTLSGIDASTLPSLKAINISDNHFDLAQGTENRHILDTILATLAKNGASTASFDKQKPKGLYPESYSTAPLHLQVGQGKINVIDDLIFGTRTNQNTLINTENDFEAYKEQTIQGKPFIAPDYLYDNFKVSYKEYSASIVDSTLAETTDKTIDTAKAETYQVTVSNKDGKTVHSVKVIVGDEKPMMVNLAQDAKIIGTDNMTQSAKVFDGQKDQFLLSWNKDSSVIFELKTPGTAKHWRFFDDGKNDSVTLSVFKGDASNFETEKDKAENWVEITKDSRKNDDKVFSSPLEVDNAKYLKVTIKKEAKYIYFNELQILGYPGVVAKKTADDLRPTEADKSDDKSDKNDTEAK
modifications: Amino acid sequence of Endo-Si D241M
Turning to B1, the Transglycosylation rate with (Fucα1,6)GlcNAc-mAb2 [1] (1 h) stood at 98.8%; with (Fucα1,6)GlcNAc-mAb2 [1] (2 h) it was 98.9%; in the assay on (Fucα1,6)GlcNAc-mAb2 [1] (4 h), 97.4%; with (Fucα1,6)GlcNAc-mAb2 [1] (6 h), 97.5%; in the assay with (Fucα1,6)GlcNAc-mAb2 [1] (24 h) it was 75.0%; with (Fucα1,6)GlcNAc-mAb2 [2] (2 h), 12.8%. The Transglycosylation rate in the assay with (Fucα1,6)GlcNAc-mAb2 [2] (4 h) is recorded as 27.9%; in the assay on (Fucα1,6)GlcNAc-mAb2 [2] (6 h), 40.5%; in the assay with (Fucα1,6)GlcNAc-mAb2 [2] (24 h) it was 96.5%; with (Fucα1,6)GlcNAc-mAb2 [2] (48 h), 96.8%.
